Results published in publication doi:10.1101/2021.01.30.428887.
Like-named read-outs stand apart in the source and are kept apart here.

Experiments:
Test in all cases: quadruple optical trap force measurement
[1] = target: Human vimentin C328N with three additional amino acids, GGC, at the C-terminus (human)
[2] = target: Human vimentin C328N with three additional amino acids, GGC, at the C-terminus (human); remark: listed apart in the source
[3] = target: Human vimentin C328N with three additional amino acids, GGC, at the C-terminus (human); remark: listed apart in the source
[4] = target: Human vimentin C328N with three additional amino acids, GGC, at the C-terminus (human); remark: listed apart in the source
[5] = target: Human vimentin C328N with three additional amino acids, GGC, at the C-terminus (human); remark: listed apart in the source
[6] = target: Human vimentin C328N with three additional amino acids, GGC, at the C-terminus (human); remark: listed apart in the source
[7] = target: Human vimentin C328N with three additional amino acids, GGC, at the C-terminus (human); remark: listed apart in the source

- koff [1]: 0.18 s⁻¹
- maximal interaction (rupture) force [1]: 112 pN
- koff [2]: 0.15 s⁻¹
- maximal interaction (rupture) force [3]: 57 pN
- koff [4]: 0.08 s⁻¹
- koff [5]: 0.2 s⁻¹
- koff [6]: 0.1 s⁻¹
- maximal interaction (rupture) force [7]: 85 pN
Substance: Human vimentin C328N with three additional amino acids, GGC, at the C-terminus (natural protein)
